Results on three proteins are retold here after patent publication US20120322150.

Data set [1] deals with T1, GST-BSU1-KL (N-terminal Kelch domain).
T1 chain: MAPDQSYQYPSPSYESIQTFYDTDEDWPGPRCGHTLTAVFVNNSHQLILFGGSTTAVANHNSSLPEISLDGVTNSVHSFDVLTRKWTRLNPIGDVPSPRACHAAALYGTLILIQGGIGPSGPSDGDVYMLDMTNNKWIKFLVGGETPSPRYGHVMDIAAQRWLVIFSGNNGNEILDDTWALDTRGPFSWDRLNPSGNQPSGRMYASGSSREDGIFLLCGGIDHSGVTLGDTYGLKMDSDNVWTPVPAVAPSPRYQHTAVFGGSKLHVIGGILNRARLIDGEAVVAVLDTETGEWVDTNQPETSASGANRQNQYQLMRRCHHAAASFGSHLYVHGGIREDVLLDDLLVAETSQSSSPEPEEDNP

The next data set deals with T2, MBP-BZR1, Q8S307.
T2 chain: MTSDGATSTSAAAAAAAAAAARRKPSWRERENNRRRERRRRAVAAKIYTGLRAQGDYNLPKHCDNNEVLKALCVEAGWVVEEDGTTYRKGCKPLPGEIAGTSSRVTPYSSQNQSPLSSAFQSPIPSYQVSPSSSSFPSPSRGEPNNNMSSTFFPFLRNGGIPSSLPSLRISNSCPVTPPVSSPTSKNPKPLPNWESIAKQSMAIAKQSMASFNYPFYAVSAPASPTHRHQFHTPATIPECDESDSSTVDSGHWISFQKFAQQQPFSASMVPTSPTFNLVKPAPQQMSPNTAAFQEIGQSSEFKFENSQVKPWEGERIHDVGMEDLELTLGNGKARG

The next data set addresses T3, GST-BIN2, Q39011.
T3 chain: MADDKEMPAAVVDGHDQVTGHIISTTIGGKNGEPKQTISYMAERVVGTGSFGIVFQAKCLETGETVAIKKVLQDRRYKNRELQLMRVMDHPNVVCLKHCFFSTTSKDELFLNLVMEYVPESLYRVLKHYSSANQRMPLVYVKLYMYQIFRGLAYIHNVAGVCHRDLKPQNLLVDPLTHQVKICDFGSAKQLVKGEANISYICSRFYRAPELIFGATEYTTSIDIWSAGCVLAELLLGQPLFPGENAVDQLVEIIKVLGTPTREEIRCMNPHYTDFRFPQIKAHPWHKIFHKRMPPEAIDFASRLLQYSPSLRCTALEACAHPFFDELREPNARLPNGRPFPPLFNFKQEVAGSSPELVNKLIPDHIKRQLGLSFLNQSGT

B1: GST-BIN2 (protein)
chain: T3 chain
Take B1: the “BIN2 phosphorylation of MBP-BZR1 (in vitro kinase assay with 32P-γATP)” value in data set [1] was “the Kelch repeat domain showed no effect”.

B2: GST-AtSK12 (protein)
chain: MASVGIEPSAAVRESTGNVTDADRLPEEMKDMKIQDDKEMEATIVNGNVTETGHIIVTTIGGRNGQPKQTISYMAERVVGHGSFGVVFQAKCLETGETVAIKKVLQDRRYKNRELQTMRLLDHPNVVSLKHCFFSTTEKDELYLNLVLEYVPETVHRVIKHYNKLNQRMPLVYVKLYTYQIFRSLSYIHRCIGVCHRDIKPQNLLVNPHTHQVKLCDFGSAKVLVKGEPNISYICSRYYRAPELIFGATEYTTAIDVWSAGCVLAELLLGQPLFPGESGVDQLVEIIKVLGTPTREEIKCMNPNYTEFKFPQIKAHPWHKIFHKRMPPEAVDLVSRLLQYSPNLRCAALDSLVHPFFDELRDPNARLPNGRFLPPLFNFKPHELKGVPVEMVAKLVPEHARKQCPWLSL
In the case of B2, the “phosphorylation of MBP-BZR1 (in vitro kinase assay with 32P-γATP)” value with MBP-BZR1, Q8S307 is given as “AtSK12 strongly phosphorylates BZR1 in vitro”.

B3: GST-BSU1-P (C-terminal phosphatase domain) (protein)
chain: DNYMLLDDYLMDEPKPLSSEPEASSFIMRSTSEIAMDRLAEAHNLPTIENAFYDSAIEGYVPLQHGAETVGNRGGLVRTASLDQSTQDLHKKVISTLLRPKTWTPPANRDFFLSYLEVKHLCDEVEKIFMNEPTLLQLKVPIKVFGDIHGQYGDLMRLFHEYGHPSVEGDITHIDYLFLGDYVDRGQHSLEIIMLLFALKIEYPKNIHLIRGNHESLAMNRIYGFLTECEERMGESYGFEAWLKINQVFDYLPLAALLEKKVLCVHGGIGRAVTIEEIENIERPAFPDTGSMVLKDILWSDPTMNDTVLGIVDNARGEGVVSFGPDIVKAFLERNGLEMILRAHECVIDGFERFADGRLITVFSATNYCGTAQNAGAILVIGRDMVIYPKLIHPHPPPISSSEEDYTDKAWMQELNIEMPPTPARGESSE
Take B3: in the data set with GST-BIN2, Q39011, the “BIN2 phosphorylation of MBP-BZR1 (in vitro kinase assay with 32P-γATP)” value is listed as “The phosphatase domain of BSU1 reduced BIN2 phosphorylation of BZR1”.
